B1: UPF0688 protein C1orf174 (Homo sapiens), Q8IYL3 (parent)
chain: MRSRKLTGAVRSSARLKARSCSAARLASAQEVAGSTSAKTACLTSSSHKATDTRTSKKFKCDKGHLVKSELQKLVPKNDSASLPKVTPETPCENEFAEGSALLPGSEAGVSVQQGAASLPLGGCRVVSDSRLAKTRDGLSVPKHSAGSGAEESNSSSTVQKQNEPGLQTEDVQKPPLQMDNSVFLDDDSNQPMPVSRFFGNVELMQDLPPASSSCPSMSRREFRKMHFRAKDDDDDDDDDAEM
B2: Syntaxin-binding protein 4 (Homo sapiens), Q6ZWJ1 (parent)
chain: MNKNTSTVVSPSLLEKDPAFQMITIAKETGLGLKVLGGINRNEGPLVYIQEIIPGGDCYKDGRLKPGDQLVSVNKESMIGVSFEEAKSIITGAKLRLESAWEIAFIRQKSDNIQPENLSCTSLIEASGEYGPQASTLSLFSSPPEILIPKTSSTPKTNNDILSSCEIKTGYNKTVQIPITSENSTVGLSNTDVASAWTENYGLQEKISLNPSVRFKAEKLEMALNYLGIQPTKEQHQALRQQVQADSKGTVSFGDFVQVARNLFCLQLDEVNVGAHEISNILDSQLLPCDSSEADEMERLKCERDDALKEVNTLKEKLLESDKQRKQLTEELQNVKQEAKAVVEETRALRSRIHLAEAAQRQAHGMEMDYEEVIRLLEAKITELKAQLADYSDQNKESVQDLKKRIMVLDCQLRKSEMARKTFEASTEKLLHFVEAIQEVFSDNSTPLSNLSERRAVLASQTSLTPLGRNGRSIPATLALESKELVKSVRALLDMDCLPYGWEEAYTADGIKYFINHVTQTTSWIHPVMSVLNLSRSEENEEDCSRELPNQKS
partner: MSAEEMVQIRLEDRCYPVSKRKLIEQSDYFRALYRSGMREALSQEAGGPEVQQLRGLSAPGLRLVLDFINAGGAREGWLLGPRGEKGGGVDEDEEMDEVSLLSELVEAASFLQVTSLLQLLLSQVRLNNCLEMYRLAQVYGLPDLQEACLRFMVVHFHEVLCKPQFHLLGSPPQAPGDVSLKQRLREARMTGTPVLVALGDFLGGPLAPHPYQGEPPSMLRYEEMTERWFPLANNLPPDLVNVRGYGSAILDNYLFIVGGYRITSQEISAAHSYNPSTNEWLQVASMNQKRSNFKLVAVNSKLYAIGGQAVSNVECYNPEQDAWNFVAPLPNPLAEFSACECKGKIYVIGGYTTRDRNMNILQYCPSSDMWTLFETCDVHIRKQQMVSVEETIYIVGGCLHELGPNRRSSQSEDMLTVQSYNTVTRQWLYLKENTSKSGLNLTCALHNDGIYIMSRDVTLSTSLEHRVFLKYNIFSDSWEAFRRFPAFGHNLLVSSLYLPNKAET
B3: Meiotic recombination protein DMC1/LIM15 homolog (Homo sapiens), Q14565 (parent)
chain: MKEDQVVAEEPGFQDEEESLFQDIDLLQKHGINVADIKKLKSVGICTIKGIQMTTRRALCNVKGLSEAKVDKIKEAANKLIEPGFLTAFEYSEKRKMVFHITTGSQEFDKLLGGGIESMAITEAFGEFRTGKTQLSHTLCVTAQLPGAGGYPGGKIIFIDTENTFRPDRLRDIADRFNVDHDAVLDNVLYARAYTSEHQMELLDYVAAKFHEEAGIFKLLIIDSIMALFRVDFSGRGELAERQQKLAQMLSRLQKISEEYNVAVFVTNQMTADPGATMTFQADPKKPIGGHILAHASTTRISLRKGRGELRIAKIYDSPEMPENEATFAITAGGIGDAKE
partner: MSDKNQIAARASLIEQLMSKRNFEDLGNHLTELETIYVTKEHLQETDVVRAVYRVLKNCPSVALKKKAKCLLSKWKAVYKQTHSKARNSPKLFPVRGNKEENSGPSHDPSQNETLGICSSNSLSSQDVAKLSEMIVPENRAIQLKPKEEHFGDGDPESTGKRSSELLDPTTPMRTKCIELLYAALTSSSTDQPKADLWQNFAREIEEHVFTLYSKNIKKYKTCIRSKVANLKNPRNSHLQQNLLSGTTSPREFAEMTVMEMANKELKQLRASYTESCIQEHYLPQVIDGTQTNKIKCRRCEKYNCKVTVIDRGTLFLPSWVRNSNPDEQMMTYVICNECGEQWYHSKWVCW
B4: Zinc finger protein 511 (Homo sapiens), Q8NB15 (parent)
chain: MQLPPALCARLAAGPGAAEPLPVERDPAAGAAPFRFVARPVRFPREHQFFEDGDVQRHLYLQDVIMQVADVPEKPRVPAFACQVAGCCQVFDALDDYEHHYHTLHGNVCSFCKRAFPSGHLLDAHILEWHDSLFQILSERQDMYQCLVEGCTEKFKTSRDRKDHMVRMHLYPADFRFDKPKKSRSPASAEAPGDSGERSEGEAMEICSEPVAASPAPAGERRIYRHRIPSTICFGQGAARGFKSNKKKTKQC
partner: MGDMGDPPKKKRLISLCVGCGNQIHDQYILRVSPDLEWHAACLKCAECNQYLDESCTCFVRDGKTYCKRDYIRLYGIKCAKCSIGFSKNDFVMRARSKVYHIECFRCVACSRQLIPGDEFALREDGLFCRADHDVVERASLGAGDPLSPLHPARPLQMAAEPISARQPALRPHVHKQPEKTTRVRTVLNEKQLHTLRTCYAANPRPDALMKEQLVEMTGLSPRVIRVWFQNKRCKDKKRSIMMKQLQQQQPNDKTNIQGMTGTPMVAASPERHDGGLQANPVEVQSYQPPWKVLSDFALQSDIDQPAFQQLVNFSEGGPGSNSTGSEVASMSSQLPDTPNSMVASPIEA
B5: TBC1 domain family member 7 (Homo sapiens), Q9P0N9 (parent)
chain: MTEDSQRNFRSVYYEKVGFRGVEEKKSLEILLKDDRLDTEKLCTFSQRFPLPSMYRALVWKVLLGILPPHHESHAKVMMYRKEQYLDVLHALKVVRFVSDATPQAEVYLRMYQLESGKLPRSPSFPLEPDDEVFLAIAKAMEEMVEDSVDCYWITRRFVNQLNTKYRDSLPQLPKAFEQYLNLEDGRLLTHLRMCSAAPKLPYDLWFKRCFAGCLPESSLQRVWDKVVSGSCKILVFVAVEILLTFKIKVMALNSAEKITKFLENIPQDSSDAIVSKAIDLWHKHCGTPVHSS
partner: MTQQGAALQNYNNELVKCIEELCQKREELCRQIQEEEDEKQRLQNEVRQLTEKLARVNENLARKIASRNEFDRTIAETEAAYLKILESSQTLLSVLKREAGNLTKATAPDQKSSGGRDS
B6: Isoform 1 of Myotubularin-related protein 9 (Homo sapiens), Q96QG7-1 (parent)
chain: MEFAELIKTPRVDNVVLHRPFYPAVEGTLCLTGHHLILSSRQDNTEELWLLHSNIDAIDKRFVGSLGTIIIKCKDFRIIQLDIPGMEECLNIASSIEALSTLDSITLMYPFFYRPMFEVIEDGWHSFLPEQEFELYSSATSEWRLSYVNKEFAVCPSYPPIVTVPKSIDDEALRKVATFRHGGRFPVLSYYHKKNGMVIMRSGQPLTGTNGRRCKEDEKLINATLRAGKRGYIIDTRSLNVAQQTRAKGGGFEQEAHYPQWRRIHKSIERYHILQESLIKLVEACNDQTHNMDRWLSKLEASNWLTHIKEILTTACLAAQCIDREGASILIHGTEGTDSTLQVTSLAQIILEPRSRTIRGFEALIEREWLQAGHPFQQRCAQSAYCNTKQKWEAPVFLLFLDCVWQILRQFPCSFEFNENFLIMLFEHAYASQFGTFLGNNESERCKLKLQQKTMSLWSWVNQPSELSKFTNPLFEANNLVIWPSVAPQSLPLWEGIFLRWNRSSKYLDEAYEEMVNIIEYNKELQAKVNILRRQLAELETEDGMQESP
partner: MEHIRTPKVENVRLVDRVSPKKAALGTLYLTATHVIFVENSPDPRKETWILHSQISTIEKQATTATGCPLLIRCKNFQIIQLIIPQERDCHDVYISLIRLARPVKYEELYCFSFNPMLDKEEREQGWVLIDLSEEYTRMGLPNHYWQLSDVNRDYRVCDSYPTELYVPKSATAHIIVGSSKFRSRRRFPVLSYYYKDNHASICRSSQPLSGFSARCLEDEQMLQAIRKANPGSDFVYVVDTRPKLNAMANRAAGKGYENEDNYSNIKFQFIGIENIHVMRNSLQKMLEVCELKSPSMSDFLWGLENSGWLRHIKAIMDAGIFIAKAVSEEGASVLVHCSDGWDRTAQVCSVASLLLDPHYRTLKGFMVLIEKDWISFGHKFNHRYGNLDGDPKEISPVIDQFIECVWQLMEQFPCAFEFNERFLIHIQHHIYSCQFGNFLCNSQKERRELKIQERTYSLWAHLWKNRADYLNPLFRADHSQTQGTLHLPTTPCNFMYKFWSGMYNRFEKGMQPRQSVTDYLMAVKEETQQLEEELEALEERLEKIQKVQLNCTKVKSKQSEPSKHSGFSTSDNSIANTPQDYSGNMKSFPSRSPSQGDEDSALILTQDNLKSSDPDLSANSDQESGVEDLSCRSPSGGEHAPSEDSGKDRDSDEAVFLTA
B7: Protein FAM9B (Homo sapiens), Q8IZU0 (parent)
chain: MAAWGKKHAGKDPVRDECEERNRFTETREEDVTDEHGEREPFAETDEHTGANTKKPEDTAEDLTAKRKRMKMDKTCSKTKNKSKHALRKKQLKRQKRDYIHSLKLLNVLEEYITDEQKEEEEEEGEEEELIRIFQEQQKKWQQYRSVRRERLKEMKLLRDQFVKALEDFEDLCDRVFSDEDSELDN
partner: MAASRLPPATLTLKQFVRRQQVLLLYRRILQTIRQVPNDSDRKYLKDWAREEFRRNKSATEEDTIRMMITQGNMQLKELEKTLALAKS

Variants of: B1
Conditions: with ikzf1_human IKZF1, Q13422
Sequence of ikzf1_human IKZF1, Q13422 (Q13422 whole entry): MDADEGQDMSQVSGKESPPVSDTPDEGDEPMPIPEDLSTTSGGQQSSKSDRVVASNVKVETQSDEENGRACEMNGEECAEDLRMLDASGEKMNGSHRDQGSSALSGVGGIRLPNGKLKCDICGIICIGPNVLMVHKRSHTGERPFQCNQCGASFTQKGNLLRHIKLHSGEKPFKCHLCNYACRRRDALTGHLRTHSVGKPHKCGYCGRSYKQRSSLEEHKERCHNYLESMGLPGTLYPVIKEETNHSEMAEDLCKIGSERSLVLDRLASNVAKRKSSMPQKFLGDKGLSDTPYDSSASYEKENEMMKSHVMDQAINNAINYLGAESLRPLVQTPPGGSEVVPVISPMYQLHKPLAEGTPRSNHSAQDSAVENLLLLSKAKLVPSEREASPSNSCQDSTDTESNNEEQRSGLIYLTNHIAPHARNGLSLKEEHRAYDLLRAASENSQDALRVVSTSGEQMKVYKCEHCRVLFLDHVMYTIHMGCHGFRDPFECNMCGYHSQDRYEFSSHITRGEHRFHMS

Row | Variant | effect of a mutation on the interaction
1 | S82A | with no effect
2 | V195M | with no effect
3 | R131C | with no effect
4 | A81T | with no effect

Variants of: B2
Conditions: with klh42_human KLHL42, Q9P2K6

Row | Variant | effect of a mutation on the interaction
5 | C120R | with no effect

Variants of: B3
Conditions: with teanc_human TCEANC

Row | Variant | effect of a mutation on the interaction
6 | I288T | with no effect

Variants of: B4
Conditions: with isl1_human ISL1, P61371

Row | Variant | effect of a mutation on the interaction
7 | D123N | with no effect
8 | S195N | with no effect

Variants of: B5
Conditions: with ssna1_human SSNA1, O43805

Row | Variant | effect of a mutation on the interaction
9 | L67W | disrupting interaction strength

Variants of: B6
Conditions: with mtmr7_human MTMR7, Q9Y216

Row | Variant | effect of a mutation on the interaction
10 | F127I | with no effect

Variants of: B6
Conditions: with mtmr7_human MTMR7, Q9Y216
Remark: another data set of the same source

Row | Variant | effect of a mutation on the interaction
11 | S126C | with no effect

Variants of: B7
Conditions: with lyrm2_human LYRM2, Q9NU23

Row | Variant | effect of a mutation on the interaction
12 | R23H | with no effect
